Reference: US20220275049A1, “ANTIGENIC POLYPEPTIDES AND METHODS OF USE THEREOF” (AGENUS INC., priority 2019, published 2022)
Square brackets hold non-standard residues; d marks the D form. Ends that are not written are not given here. pT = C[C@@H](OP(=O)(O)O)[C@H](N)C(=O)O; pS = N[C@@H](COP(=O)(O)O)C(=O)O

Molecular target: biotinylated HLA-A*02:01 with β2m (human)
Experiment: AlphaScreen, peptide titrated on biotinylated HLA + b2m
Conditions: remark: other sources report otherwise

Row | Kd | Binder
1 | 157 nM | RTL[pS]HISEA [RTLsHISEA]
2 | 53.9 nM | SLFGG[pS]VKL [SLFGGsVKL]
3 | 701 nM | SMTR[pS]PPRV [SMTRsPPRV]
4 | 150 nM | VLL[pS]PVPEL [VLLsPVPEL]
5 | 40.5 nM | VLY[pS]PQMAL [VLYsPQMAL]
6 | 242 nM | RVA[pS]PTSGV [RVAsPTSGV]
7 | 14.8 nM | RQA[pS]IELPSMAV [RQAsIELPSMAV]
8 | 20.4 nM | RQA[pS]IELPSM [RQAsIELPSM]

Continued, binder first:

Row | Binder | Kd
9 | KLIDRTE[pS]L [KLIDRTEsL] | 260 nM
10 | GPRSA[pS]LL[pS]L [GPRSAsLLsL] | 500 nM
11 | GLLG[pS]PVRA [GLLGsPVRA] | 431 nM

Molecular target: biotinylated HLA-B*07:02 with β2m (human)
Experiment: as above
Conditions: remark: other sources report otherwise

Row | Kd | Binder
12 | 227 nM | RVA[pS]PTSGV [RVAsPTSGV]
13 | 75.5 nM | TPR[pS]PPLGL [TPRsPPLGL]
14 | 91 nM | TPR[pS]PPLGLI [TPRsPPLGLI]
15 | 117 nM | RPT[pS]RLNRL [RPTsRLNRL]
16 | 551 nM | RVR[pS]PTRSP [RVRsPTRSP]

Continued, binder first:

Row | Binder | Kd
17 | GPRSASLL[pS]L [GPRSASLLsL] | 47.1 nM
18 | QPR[pT]PSPLVL [QPRtPSPLVL] | 199 nM
19 | GPRSA[pS]LLSL [GPRSAsLLSL] | 34.1 nM
20 | RPS[pS]LPDL [RPSsLPDL] | 369 nM
21 | GPRSA[pS]LL[pS]L [GPRSAsLLsL] | 50 nM
22 | RPRPV[pS]PSSL [RPRPVsPSSL] | 218 nM
23 | EPR[pS]PSHSM [EPRsPSHSM] | 199 nM

Molecular target: biotinylated HLA-C*07:01 with β2m (human)
Experiment: as above
Conditions: remark: other sources report otherwise

Row | Binder | Kd
24 | RTL[pS]HISEA [RTLsHISEA] | 380 nM
